Results reported in patent US20210253725A1 (BIONTECH, published 2021).

T1: CD134 expressed on the cell surface of HT1080_OX40 cells (human, UniProt P43489 29-277)
T1 sequence (looked up): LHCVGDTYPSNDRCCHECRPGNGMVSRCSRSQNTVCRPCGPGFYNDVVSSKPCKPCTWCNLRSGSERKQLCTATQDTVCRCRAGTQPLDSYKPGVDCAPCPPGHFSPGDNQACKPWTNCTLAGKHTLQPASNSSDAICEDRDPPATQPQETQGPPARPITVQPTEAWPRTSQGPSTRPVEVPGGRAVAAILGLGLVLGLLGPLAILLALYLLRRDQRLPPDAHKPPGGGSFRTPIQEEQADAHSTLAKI

T2: CD134 protein (His-tagged, Sino Biological Inc. 10481-H08H) (human, UniProt P43489 29-216)
T2 construct: bought protein coated on ELISA plates; also called OX40; TNFRSF4; not shown: His tag
T2 sequence (looked up): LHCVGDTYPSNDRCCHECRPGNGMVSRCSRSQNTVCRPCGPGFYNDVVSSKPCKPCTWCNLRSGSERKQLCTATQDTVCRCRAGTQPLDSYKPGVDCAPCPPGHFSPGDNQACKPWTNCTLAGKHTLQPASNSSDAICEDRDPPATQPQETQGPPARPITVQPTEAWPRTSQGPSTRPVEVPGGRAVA

B1: P018.S.12.A.H01 (antibody, V domains shown)
VH: QSVEESGGRLVTPGTPLTLTCTVSGFSLSSYAMSWVRQAPGKGLEWIGDINSYATTYYASWAKGRFTISKTSTTVDLKLTSPTTEDTATYFCAREAGYADLWGQGTLVTVSS
VL: AYDMTQTPASVEVAVGGTVTIKCQASQSISRYLSWYQQEPGQRPKLLIYEASTLASGVSSRFKGSGSGTQFTLTISGVESADAATYYCQQDYDSTDVGNTFGGGTEVVVK
notes: V regions on human Ig constant parts; also called AB134_88
B2: P018.S.12.A.F02 (antibody, V domains shown)
VH: QSLEESGGRLVTPGTPLTLTCTASGFSLIKSHINWVRQAPGKGLEWVGGIAYDDNTYYANWAKGRFTISKTSTTVDLRITSPTTADTATYFCAREDSSGWGSFNLWGQGTLVTVSS
VL: AQVLTQTPSSVSAAVGGTVTISCQSSQSVYATNQLSWFQQKSGQPPKRLIYSASTLASGVSSRFKGSGSGTQFTLTISGVQSDDAATYYCQGAYDCSGGDCRAFGGGTEVVVK
notes: V regions on human Ig constant parts; also called AB134_78
B3: P018.S.11.A.D06 (antibody, V domains shown)
VH: QSLEESGGRLVKPGESLTLTCTVSEFSLSSNAMGWVRQAPGKGLEFIGLIDSGGDAYYATWAKGRFTISKTSSTTVDLKATSLTTEDTATYFCGRGYWFPRLGLWGQGTLVTVSS
VL: AAVLTQTPSPVSAAVGGTVSINCQSTKNVYLNNWLGWFQKKPGQPPKLLIYDASTLASGVPSRFKGSGSGTEFTLTISDLESDDAATYYCAGAYDDNSDHTFGGGTEVVVK
notes: V regions on human Ig constant parts; also called AB134_32
B4: P018.S.12.A.G01 (antibody, V domains shown)
VH: QSVEESGGRLVTPGTPLTLTCTVSGFSLSSSTMGWFRQAPGKGLEWIGVIYTDGDTYYARWAKGRFTISKTSTTINLSITSPTSEDTATYFCARRANGYDDFDPWGPGTLVTVSS
VL: AYDMTQTPASVEVAVGGTVTIKCQASESISSYLNWYQQKPGQPPKLLIYYESYLASGVPSRFKGSGSGTEYTLTISGVESADAATYYCQQGFSYINVDNTFGGGTEVVVK
notes: V regions on human Ig constant parts; also called AB134_83
B5: P018.S.12.A.D04 (antibody, V domains shown)
VH: QSVEESGGRLVTPGTPLTLTCTVSGIDLSSYAMGWVRQAPGKGLEYIGIISYDGSTYYASWAKGRFTISKTSTTVDLKITSPTTEDTATYFCARVDYGDYNFALWGQGTLVTVSS
VL: DVVMTQTPASVSEVVGGTVTIKCQASESISNYLAWYQQKPGQPPKLLIYAASNLASGVPSRFSGSGSGTQFTLTISDLESADAATYYCQCTYYVSSYFAFSGGTEVVVK
notes: V regions on human Ig constant parts; also called AB134_69
B6: P018.S.12.A.F04 (antibody, V domains shown)
VH: QQQLEESGGGLVKPGGTLTLTCTASGIDFSSYWMWWVRQPPGKGLEWVACIYNGDGSTYYASWAKGRFTISKTSSTTVTLQMTSLTAADTATYFCARDFHLWGPGTLVTVSS
VL: AQVLTQTASPVSAAVGSTVTINCQASQNIYKNNYLSWYQQKPGQPPKGLIYSASTLDSGVPLRFSGSGSGTKFTLTISDVQSDDAATYYCLGSVACSGPDCIVFGGGTEVVVK
notes: V regions on human Ig constant parts; also called AB134_80
B7: P018.S.12.A.H04 (antibody, V domains shown)
VH: QSVEESGGRLVTPGTPLTLTCTASGFSLSDYYMSWVRQAPGKGLEWIGFMNSGGNAYYASWASGRFTISKTSTTVDLKITSPTTEDTATYFCVRDLSRFSLWGRGTLVIVSS
VL: AAVLTQTPSPVSAAVGGTVTINCQASPSVYSDYLSWFQQKPGQAPKLLIYWASTLTSGVPSRFSGSGSGTQFTLTISDVQSDDAATYYCAGGYSGNSDVWAFGGGTEVVVK
notes: V regions on human Ig constant parts; also called AB134_90
B8: P018.S.12.A.E06 (antibody, V domains shown)
VH: QSVEESGGRLVTPGTPLTLTCTVSGFSLSNYHMCWVRRAPGKGLEWIGSITTADETTHYANWAKGRFTISETSTTVDLRITSPTTEDTAIYFCGRTIRYDDYAVDLWGPGTLVTVSS
VL: DLVMTQTPASMSEPVGGTVTIKCQASESVGGYLAWYQQKAGQRPKLLIYAAGNLASGVPSRFKGSGSGTEYTLTISDLESADAATYYCQCTYFDSSYVGFGGGTEVVVR
notes: V regions on human Ig constant parts; also called AB134_77
B9: P018.S.11.A.E04 (antibody, V domains shown)
VH: QSVEESGGRLVTPGTPLTLTCTVSGFSLNDYAMSWVRQAPGKGLEWIGSIYTSGTPYYATWAKGRFTISKTSTTVDLKITSPTTEDTATYFCARQSGIDNYWLFTLWGQGTLVCVSS
VL: AYDMTQTPASVEVGVGGTVTIKCQASESIASGLAWYQQKPGQRPKLLIYSASSLASGVSSRFKGSGSGTQFTLTISDLESADAANYYCQQGYTSTNLHNVFGGGTEVVVK
notes: V regions on human Ig constant parts; also called AB134_35
B10: P018.S.11.A.H06 (antibody, V domains shown)
VH: QSLEESGGRLVTPGTPLTLTCTVSGFSLSTYAMIWVRQAPGEGPEWIGLIAGGGNTWYASWAKGRFTISKTSTTVDLKITSPTTEDTATYFCARADYLGYGNNFWGQGTLVTVSS
VL: AAVLTQTPSPVSAAVGGTVTINCQASQSVYNNNYLAWYQQKPGQPPKLLIYWASNLASGVPSRFSGSGSGTQFSLTISGVQSDDAATYYCLGVYDDDADNGFGGGTEVVVK
notes: V regions on human Ig constant parts; also called AB134_49
B11: P018.S.12.A.A03 (antibody, V domains shown)
VH: LEQSAGGAEGGLVKPGGSLELCCKASGFSLNNNYWICWVRQAPGKGLEWIGCIYVGVVSLTYSASWVNGRFTLSKDIDQSTGCLQLNSLTAADTAMYYCARSLYSGYAGYGDGYYGMDLWGPGTLVTVSS
VL: GVVMTQTPASVSDPVGGTVTIKCQASQSIGSDLAWYQQKPGQPPKLLIYAASNLASGVSSRFSGIRSGTEFTLTISDLESADAATYYCQCTDYVDSHDTFGGGTEVVVK
notes: V regions on human Ig constant parts; also called AB134_52
B12: P018.S.08.A.B03 (antibody, V domains shown)
VH: QSVEESGGRLVTPGTPLTLTCTVSGFSLSRYAITWVRQAPGKGLEWIGIISSSGTTYYASWAKGRFTISKTSTTVDLKITSPTTEDTAIYFCARAIAGDAGYVYAIDWLDLWGQGTLVTVSS
VL: DPVLTQTPSSASEPVGGTVTIKCQASEYISNYLSWYQQKPGQPPKLLIFGASTLESGVPSRFSGSGSGTEFTLTISGVQSADAATYYCQGGYFSSSTTYVAFGGGTEVVVR
notes: V regions on human Ig constant parts; also called AB134_19
B13: P018.S.12.A.B02 (antibody, V domains shown)
VH: QSLEESGGRLVTPGTPLTLTCTVSGIDLSKYTMTWVRQAPGKGLEWIGLISFGGRGGTWYANWAKGRFTISKTSTTVDLRIASPTTEDTATYFCARARYSGTNYDYFNLWGQGTLVTVSS
VL: AYDMTQTPASVEVAVGGTVTIKCQASQSISNWLAWYQQKPGQRPKLLIYGASNLESGVPSRFKGSGSGTDFTLTISDLESADAATYYCQQGYSSDGVTNAFGGGTEVVVE
notes: V regions on human Ig constant parts; also called AB134_57
B14: P018.S.11.A.F03 (antibody, V domains shown)
VH: QEQLVESGGGLVQPEGSLTLTCKASGFDFNNNAMCWVRQAPGKGLEWIACIYDGSSGSTYYASWAKGRFTISKTSSSTVTLQMTSLTAADTATYFCARAYAAYTVYDYAFNLWGPGTLVTVSS
VL: DVVMTQTPASVSEPVGGTVTIKCQASQSIGSDLAWYQQKPGQPPKLLIYYTTNLETGVSSRFKGSGSGTQFTLTISDLESADAATYYCQYADRSSYSFGGGTEVVVK
notes: V regions on human Ig constant parts; also called AB134_39

What was measured:
[1] = target: T1, CD134 expressed on the cell surface of …; assay: cell-based or functional assay
[2] = target: T1, CD134 expressed on the cell surface of …; assay: HT1080_OX40 cells, imaging
[3] = target: T2, CD134 protein (His-tagged, Sino …); assay: ELISA, coated His-tagged CD134
Note: test concentration or dose not given here.

Binder | Functional assay Cross-linked by F(ab′)2 fragment IL-8 [1] | Functional assay IL-8 [1] | Cellular binding assay [RFU] [2] | ELISA [abs. corr.] [3]
B1 | 1.83 abs. corr. | 0.43 abs. corr. | 523 RFU | 1.89 abs. corr.
B2 | 1.99 abs. corr. | 0.185 abs. corr. | 549 RFU | 2.07 abs. corr.
B3 | 1.97 abs. corr. | 0.019 abs. corr. | 130 RFU | 0.744 abs. corr.
B4 | 1.86 abs. corr. | 1.33 abs. corr. | 526 RFU | 1.56 abs. corr.
B5 | 1.86 abs. corr. | 0.139 abs. corr. | 488 RFU | 2.23 abs. corr.
B6 | 1.95 abs. corr. | 0.289 abs. corr. | 551 RFU | 2.11 abs. corr.
B7 | 1.89 abs. corr. | -0.121 abs. corr. | 295 RFU | 1.98 abs. corr.
B8 | 1.87 abs. corr. | 0.054 abs. corr. | 493 RFU | 2.3 abs. corr.
B9 | 1.83 abs. corr. | -0.194 abs. corr. | 416 RFU | 1.31 abs. corr.
B10 | 1.95 abs. corr. | 0.567 abs. corr. | 498 RFU | 2.52 abs. corr.
B11 | 1.95 abs. corr. | 0.393 abs. corr. | 493 RFU | 1.44 abs. corr.
B12 | 1.94 abs. corr. | 0.709 abs. corr. | 477 RFU | 2.66 abs. corr.
B13 | 1.97 abs. corr. | -0.167 abs. corr. | 560 RFU | 2.21 abs. corr.
B14 | 1.94 abs. corr. | 0.38 abs. corr. | 522 RFU | 1.85 abs. corr.
